# Assay results as given in paper PMC12467718.
# Target: mouse laminin (mouse)
# Experiment: ELISA; ELISA-type: mouse laminin coated on a black polystyrene plate, 50 µg/mL biotinylated-Gal-8, 37 °C 1 h, Streptavidin-Alexa 488, fluorescence (RFU)
substance,measurement,value
biotinylated human Galectin-8 (natural protein),relative fluorescence units (RFU),4000 RFU
